From patent publication US20240294622A1 (SUZHOU TRANSCENTA THERAPEUTICS, published 2024)
Positions count from the first letter of the chain named.

T1: XM5-Fc (human (hGREM1 with residues 123-143 …))
T1 construct: also called gremlin 1-DAN fusion protein
T1 chain: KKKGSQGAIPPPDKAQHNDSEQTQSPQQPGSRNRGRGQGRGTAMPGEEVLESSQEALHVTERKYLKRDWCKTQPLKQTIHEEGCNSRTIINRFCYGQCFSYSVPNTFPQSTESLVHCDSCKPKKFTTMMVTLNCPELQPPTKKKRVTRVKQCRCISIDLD

T2: human gremlin-2 (R&D) (human, UniProt Q9H772 22-168, limits assumed)
T2 construct: also called GREM2
T2 sequence (looked up): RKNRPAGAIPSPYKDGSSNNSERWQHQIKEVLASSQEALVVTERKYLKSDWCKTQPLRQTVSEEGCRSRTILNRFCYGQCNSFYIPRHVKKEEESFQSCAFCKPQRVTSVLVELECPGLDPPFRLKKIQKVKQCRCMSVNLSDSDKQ

T3: human Gremlin_Q27P/N33T (C-terminal His-tag) (human, UniProt O60565 25-184 at identity 1.00))
T3 construct: culture supernatant used
T3 chain: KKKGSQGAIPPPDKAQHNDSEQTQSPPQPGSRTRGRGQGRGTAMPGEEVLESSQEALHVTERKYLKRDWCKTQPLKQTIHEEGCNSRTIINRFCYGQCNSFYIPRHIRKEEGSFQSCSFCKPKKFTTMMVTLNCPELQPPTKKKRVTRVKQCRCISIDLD

T4: human Gremlin_Q27P (C-terminal His-tag) (human, UniProt O60565 25-184)
T4 construct: culture supernatant used
T4 chain: T3 chain with T33N

T5: human Gremlin N33T (C-terminal His-tag) (human, UniProt O60565 25-184)
T5 construct: culture supernatant used
T5 chain: T3 chain with P27Q

B1: 36F5 (antibody, V domains shown)
VH: QVQLQQSGAELARPGASVKLSCKASGYSFTSSGIGWVKQRSGQGLEWIGEIYPRSGNTYNNEKFKGKATLTADKSSSTVYMELRSLTSEDSAVYFCVREAYSHHYYAMDYWGQGTSVTVFS
VL: DVLMTQTPLSLPVSLGGQASISCRSSQSLLHSNGNTYLEWYLQKPGQSPKLLIYKVSNRFSGVPDRLSGSGSGTDFTLKISRVEAEDLGVYYCFQGSHVPFTFGSGTKLEIN
notes: mouse hybridoma antibody; also called hybridoma 36F5
B2: 14E3 (antibody, V domains shown)
VH: QIQLVQSGPELKKPGETVKISCKTSGSTFTTYGMAWMKQAPGKGLTWMGWINTLSGEPTYADDFKGRFAFSLKTSANTAYLQINNLKNEDAATYFCAREPMDYWGQGTSVIVSS
VL: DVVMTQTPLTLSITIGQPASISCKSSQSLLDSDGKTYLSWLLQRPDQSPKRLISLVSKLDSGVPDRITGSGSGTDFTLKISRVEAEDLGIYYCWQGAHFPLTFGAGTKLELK
notes: mouse hybridoma antibody; also called hybridoma 14E3; anti-gremlin1 antibody 14E3

Assays:
XM5-Fc = molecular target: T1, XM5-Fc; assay: ELISA on coated XM5-Fc (column XM5)
Procedure: Binding affinities to hGREM1 and XM5 were also compared. Briefly, XM5-Fc or Gremlin-his […] was coated. 100 μl of block solution consisting of PBS+1% BSA+1% normal goat serum+0.5% Tween 20 (Sigma) was added to each well and incubated at room temperature for 2 hours. 4-fold serial antibody dilution from 2 μg/ml were added. Afterward the plates were washed three times with 200 ul of PBS+0.1% Tween20 followed by adding 100 μl/well 1:10000 Goat anti mouse IgG-HRP (abeam), and incubate for 1 hour at room temperature. They were then washed 3× with PBS+0.1% Tween20. Finally, 100 μl/well of TMB (InnoReagents) was added to each well and after 2 minutes add 50 ul of stop solution to each well. The plates were read on a Multiscan FC microplate reader (Thermo Scientific) at […]. The EC50 values were show in table below.

human gremlin-2 (R&D) = molecular target: T2, human gremlin-2 (R&D); assay: ELISA on coated human gremlin-2 (R&D, 0.5ug/ml), anti-mouse IgG-HRP
Procedure: In addition, the specificity of the binding of 14E3 and a benchmark antibody was assessed with ELISA. Briefly, clear polystyrene plates (BEAVER) were coated with 100 μl/well of a […] hGREM1 (ACRO), or human gremlin-2 (R&D), human COCO (R&D) and human DAN protein (R&D) in high pH coating buffer overnight at 4° C. Then the plates were washed once on an automatic plate washer using PBS+0.1% Tween 20 (Sigma). 100 μl of block solution consisting of PBS+1% BSA+1% normal goat serum+0.5% Tween 20 (Sigma) was added to each well and incubated at room temperature for 2 hours. Then 100 ul of antibodies in antibody dilution buffer containing PBS+1% BSA+1% normal goat serum+0.01% Tween 20 starting from 2 μg/ml and then 5 fold serial dilution were added to each well of the plate and incubated for 1 hours at room temperature. Afterward the plates were washed three times with 200 ul of PBS+0.1% Tween20 followed by adding 100 μl/well 1:10000 Goat anti mouse IgG-HRP (Abcam), and incubate for 1 hour at room temperature. They were then washed 3× with PBS+0.1% Tween20. Finally, 100 µl/well of TMB (Pierce) was added to each well and after 5 minutes add 50 ul of stop solution to each well. The plates were read on a Multiscan FC microplate reader (Thermo Scientific) at […].

[1] = molecular target: T3, human Gremlin_Q27P/N33T (C-terminal …); assay: BLI (Octet): antibody loaded on AHC sensor, supernatant of the gremlin variant as analyte
Procedure: (§1) The supernatant for Gremlin WT and mutants to be tested were added in the Association Column of the plate, 100 ul per well. Media or KD buffer was used as a reference control. Put AHC sensors in the 1st Baseline Column for 60 s to get the 1st baseline, then in the Loading Column for 300 s to capture the Gremlin antibody. After that, put the sensors in the 2nd Baseline Column for 60 s to get the 2nd baseline. Then put them in the Association Column for 300 s to let Gremlin/Gremlin Ab associate completely, put the sensors in the dissociation Column for 300 s. Analyze the group data by ForteBio (Octet96)

[2] = molecular target: T4, human Gremlin_Q27P (C-terminal His-tag); assay: as above
Procedure: as §1

[3] = molecular target: T5, human Gremlin N33T (C-terminal His-tag); assay: as above
Procedure: as §1

Binder	EC50 (XM5-Fc)	binding result (human gremlin-2 (R&D))	binding result [1]	binding result [2]	binding result [3]
B1	6.92 ng/mL				
B2		no binding (tested: 1 ug/ml)	binds	binds	binds
